Measurements: the supplement of paper PMC9233669
Fewer inactive variants are shown than the library holds.

What was measured:
biotinyl-Ile-oxazolone = test: self-aminoacylation, catalytic enhancement (BIO) (fold over background); higher = more active; k-Seq, kA / k0A0; sequences stand for … in GGGAAUGGAUCCACAUCUACGAAUUC…UUCACUGCAGACUUGACGAAGCUG
Method in brief: (§1)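 Mutagenized RNA pools with a 21-nt variable region (0.43 μM) reacted with each biotinyl-aminoacyl-oxazolone at 2–1250 μM. Reactions ran in 50 μL HEPES/NaCl/KCl/MgCl2/CaCl2 buffer with 5% acetonitrile, pH 6.9–7.0, for 90 minutes at room temperature. Streptavidin-captured RNA was quantified by triplicate qPCR and Illumina sequencing, and per-sequence fraction reacted was fit to a pseudo-first-order model with 1000 bootstraps. Catalytic enhancement is median kA divided by the uncatalyzed rate, the low-activity peak of a bimodal Gaussian fit.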

biotinyl-Phe-oxazolone = test: self-aminoacylation, catalytic enhancement (BFO) (fold over background); higher = more active; k-Seq, kA / k0A0; sequences stand for … in GGGAAUGGAUCCACAUCUACGAAUUC…UUCACUGCAGACUUGACGAAGCUG
Method in brief: as §1

biotinyl-Val-oxazolone = test: self-aminoacylation, catalytic enhancement (BVO) (fold over background); higher = more active; k-Seq, kA / k0A0; sequences stand for … in GGGAAUGGAUCCACAUCUACGAAUUC…UUCACUGCAGACUUGACGAAGCUG
Method in brief: as §1

biotinyl-Trp-oxazolone = test: self-aminoacylation, catalytic enhancement (BWO) (fold over background); higher = more active; k-Seq, kA / k0A0; sequences stand for … in GGGAAUGGAUCCACAUCUACGAAUUC…UUCACUGCAGACUUGACGAAGCUG
Method in brief: as §1

biotinyl-Leu-oxazolone = test: self-aminoacylation, catalytic enhancement (BLO) (fold over background); higher = more active; k-Seq, kA / k0A0; sequences stand for … in GGGAAUGGAUCCACAUCUACGAAUUC…UUCACUGCAGACUUGACGAAGCUG
Method in brief: as §1

biotinyl-Met-oxazolone = test: self-aminoacylation, catalytic enhancement (BMO) (fold over background); higher = more active; k-Seq, kA / k0A0; sequences stand for … in GGGAAUGGAUCCACAUCUACGAAUUC…UUCACUGCAGACUUGACGAAGCUG
Method in brief: as §1

Row | Sequence | self-aminoacylation (biotinyl-Ile-oxazolone) | self-aminoacylation (biotinyl-Phe-oxazolone) | self-aminoacylation (biotinyl-Val-oxazolone) | self-aminoacylation (biotinyl-Trp-oxazolone) | self-aminoacylation (biotinyl-Leu-oxazolone) | self-aminoacylation (biotinyl-Met-oxazolone)
1 | AAGUUAGCUAACAGUCGCAAG [Fam3.1 aminoacylation ribozyme variant] | 1.83 | 2.2 | 1.68 | 1.56 | 1.66 | 2.31
2 | AAGUUAGCUAAUAGCCGCAAG [Fam3.1 aminoacylation ribozyme variant] | 1.88 | 1.96 | 1.6 | 2.02 | 1.44 | 0.903
3 | AAGUUAGCUAAUAGUCGCAUG [Fam3.1 aminoacylation ribozyme variant] | 1.83 | 3 | 1.34 | 1.64 | 1.97 | 1.07
4 | AAGUUAGCUAAUAGUCGGAAG [Fam3.1 aminoacylation ribozyme variant] | 1.07 | 3.13 | 1.32 | 1.94 | 1.28 | 1.12
5 | AAGUUAGCUUAUAGUCGCAAG [Fam3.1 aminoacylation ribozyme variant] | 1.8 | 2.88 | 1.56 | 1.9 | 1.48 | 1.43
6 | AAGUUAUCUAAUAGUCGCAAG [Fam3.1 aminoacylation ribozyme variant] | 1.51 | 2.66 | 1.18 | 1.36 | 1.53 | 1.32
7 | AAGUUCGCUAAUACUCGCAAG [Fam3.1 aminoacylation ribozyme variant] | 1.53 | 0.849 | 1.12 | 0.7 | 1.2 | 1.47
8 | AAGUUCGCUAAUAGCCGCAAG [Fam3.1 aminoacylation ribozyme variant] | 1.35 | 1.97 | 1.12 | 1.75 | 1.38 | 1.82
9 | AAGUUCGCUAAUAGUCGCUAG [Fam3.1 aminoacylation ribozyme variant] | 1.48 | 1.34 | 1.4 | 1.45 | 1.47 | 1.53
10 | AAGUUCGCUAAUCGUCGCAAG [Fam3.1 aminoacylation ribozyme variant] | 1.6 | 6.17 | 1.48 | 2.55 | 1.05 | 1.25
11 | AAGUUCGCUAAUUGUCGCAAG [Fam3.1 aminoacylation ribozyme variant] | 1.68 | 3.26 | 1.7 | 1.51 | 2.06 | 1.3
12 | AAGUUGGCUAAUAGCCGCAAG [Fam3.1 aminoacylation ribozyme variant] | 1.89 | 2.16 | 1.91 | 2.85 | 1.95 | 2.22
13 | AAGUUGGCUAAUAGUCGCAGG [Fam3.1 aminoacylation ribozyme variant] | 1.59 | 3.81 | 1.34 | 1.23 | 1.97 | 1.6
14 | AAGUUGGCUCAUAGUCGCAAG [Fam3.1 aminoacylation ribozyme variant] | 1.8 | 2.43 | 1.88 | 2.44 | 1.99 | 1.71
15 | AAGUUUACAAAUAGUCGCAAG [Fam3.1 aminoacylation ribozyme variant] | 1.92 | 2.51 | 1.66 | 1.98 | 1.8 | 1.51
16 | AAGUUUACUAAUAGUCGCAAG [Fam3.1 aminoacylation ribozyme variant] | 1.4 | 2.7 | 1.32 | 1.5 | 1.3 | 1.23
17 | AAGUUUACUAAUAGUCGCUAG [Fam3.1 aminoacylation ribozyme variant] | 1.39 | 2.43 | 1.23 | 1.69 | 1.26 | 1.29
18 | AAGUUUACUACUAGUCGCAAG [Fam3.1 aminoacylation ribozyme variant] | 1.57 | 2.04 | 1.6 | 1.76 | 1.27 | 1.46
19 | AAGUUUACUCAUAGUCGCAAG [Fam3.1 aminoacylation ribozyme variant] | 1.65 | 2.83 | 1.43 | 1.88 | 1.8 | 1.58
20 | AAGUUUACUGAUAGUCGCAAG [Fam3.1 aminoacylation ribozyme variant] | 1.62 | 2.67 | 1.32 | 1.55 | 1.38 | 1.02
21 | AAGUUUACUUAUAGUCGCAAG [Fam3.1 aminoacylation ribozyme variant] | 1.86 | 2.5 | 1.58 | 1.74 | 1.39 | 1.92
22 | AAGUUUCCUAAAAGUCGCAAG [Fam3.1 aminoacylation ribozyme variant] | 1.7 | 2.23 | 1.57 | 1.71 | 2.06 | 1.64

Row | Sequence | self-aminoacylation (biotinyl-Ile-oxazolone) | self-aminoacylation (biotinyl-Phe-oxazolone) | self-aminoacylation (biotinyl-Val-oxazolone) | self-aminoacylation (biotinyl-Trp-oxazolone) | self-aminoacylation (biotinyl-Leu-oxazolone) | self-aminoacylation (biotinyl-Met-oxazolone)
23 | AAGUUUCCUAAUAGUCACAAG [Fam3.1 aminoacylation ribozyme variant] | 1.8 | 2.29 | 1.61 | 1.23 | 1.64 | 1.77
24 | AAGUUUCCUAAUAGUCCCAAG [Fam3.1 aminoacylation ribozyme variant] | 1.57 | 2.59 | 1.73 | 1.48 | 1 | 1.5
25 | AAGUUUGAUAAUAGUCGUAAG [Fam3.1 aminoacylation ribozyme variant] | 0.716 | 1.38 | 0.603 | 0.783 | 0.65 | 0.625
26 | AAGUUUGAUAAUAGUCUCAAG [Fam3.1 aminoacylation ribozyme variant] | 0.737 | 1.46 | 0.703 | 0.754 | 0.638 | 0.731
27 | AAGUUUGAUACUAGUCGCAAG [Fam3.1 aminoacylation ribozyme variant] | 1.5 | 1.36 | 1.25 | 0.887 | 1.37 | 0.811
28 | AAGUUUGAUAGUAGUCGCAAG [Fam3.1 aminoacylation ribozyme variant] | 0.973 | 0.93 | 0.979 | 1.21 | 0.977 | 1.17
29 | AAGUUUGAUCAUAGUCGCAAG [Fam3.1 aminoacylation ribozyme variant] | 1.69 | 2.45 | 1.76 | 1.2 | 1.62 | 1.55
30 | AAGUUUGAUGAUAGUCGCAAG [Fam3.1 aminoacylation ribozyme variant] | 1.78 | 2.4 | 1.49 | 1.4 | 1.63 | 1.49
31 | AAGUUUGCAAAGAGUCGCAAG [Fam3.1 aminoacylation ribozyme variant] | 0.841 | 1.41 | 0.832 | 1.54 | 0.949 | 0.929
32 | AAGUUUGCAAAUAGUCGCAUG [Fam3.1 aminoacylation ribozyme variant] | 1.14 | 0.739 | 0.978 | 1.46 | 0.874 | 1.07
33 | AAGUUUGCAAAUAUUCGCAAG [Fam3.1 aminoacylation ribozyme variant] | 0.999 | 1.3 | 1.03 | 1.35 | 1.09 | 1.25
34 | AAGUUUGCCAAUAGUCGGAAG [Fam3.1 aminoacylation ribozyme variant] | 1.14 | 1.28 | 0.968 | 0.79 | 0.941 | 0.781
35 | AAGUUUGCGAAGAGUCGCAAG [Fam3.1 aminoacylation ribozyme variant] | 1.36 | 1.49 | 1.21 | 1 | 1.04 | 0.955
36 | AAGUUUGCGAAUAGUCGCAAA [Fam3.1 aminoacylation ribozyme variant] | 2.03 | 1.97 | 1.57 | 1.31 | 1.38 | 2.22
37 | AAGUUUGCGAAUCGUCGCAAG [Fam3.1 aminoacylation ribozyme variant] | 1.31 | 1.79 | 1.1 | 1 | 0.942 | 1.19
38 | AAGUUUGCGACUAGUCGCAAG [Fam3.1 aminoacylation ribozyme variant] | 1.78 | 2.33 | 1.34 | 1.67 | 1.34 | 1.73
39 | AAGUUUGCGUAUAGUCGCAAG [Fam3.1 aminoacylation ribozyme variant] | 0.888 | 1.22 | 0.996 | 1.23 | 0.753 | 1.21
40 | AAGUUUGCUAAAAAUCGCAAG [Fam3.1 aminoacylation ribozyme variant] | 1.09 | 0.949 | 0.721 | 0.986 | 0.891 | 0.925
41 | AAGUUUGCUAAAAGCCGCAAG [Fam3.1 aminoacylation ribozyme variant] | 0.613 | 1.42 | 0.689 | 1.08 | 0.63 | 0.604
42 | AAGUUUGCUAAAAGUCACAAG [Fam3.1 aminoacylation ribozyme variant] | 1.35 | 3.25 | 1.07 | 2 | 0.919 | 0.971
43 | AAGUUUGCUAAAAGUCGCAAU [Fam3.1 aminoacylation ribozyme variant] | 1.24 | 1.15 | 1.17 | 1.69 | 0.929 | 1.37
